This is an account of results in paper PMC4164784, “4E-BPs require non-canonical 4E-binding motifs and a lateral surface of eIF4E to repress translation” (Nature Communications, 2014).

Entries after “also recorded” stand apart in the source; their conditions may differ.

Experiment [1] has as its target T1, SHN-eIF4E (full length, WT) (Drosophila melanogaster, UniProt P48598-2 1-248).
T1 construct: eIF4E, Drosophila melanogaster; also called SHN-tagged eIF4E; SNH-tagged eIF4E; not shown: Strep-NusA-His (SHN), N-terminal, kept
T1 sequence (looked up): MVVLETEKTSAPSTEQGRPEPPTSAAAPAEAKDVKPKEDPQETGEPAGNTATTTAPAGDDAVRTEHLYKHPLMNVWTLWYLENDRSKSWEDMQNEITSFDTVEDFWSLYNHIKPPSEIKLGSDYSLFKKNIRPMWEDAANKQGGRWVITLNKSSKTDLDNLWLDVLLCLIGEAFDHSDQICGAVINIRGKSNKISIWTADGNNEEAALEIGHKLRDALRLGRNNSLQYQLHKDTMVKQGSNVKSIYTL
Nature of the experiment: pull-down; competition: purified SHN-eIF4E–GST-eIF4G complex with fivefold molar excess of purified MBP-Thor, 30 min at 4 °C; Strep-Tactin beads. To be noted: both partners purified.

The subject of a further experiment is eIF4E (full length, WT). Nature of the experiment: GST/MBP pull-down of full-length WT eIF4E, coexpressed in E. coli. In kind it is binding, Drosophila melanogaster. The note with it: recombinant CUP (311–440), Thor (full length), 4E-T (1–58) or eIF4G (578–650), WT or mutant, SDS–PAGE. Here is the method: For the pull-down assays shown in Fig. 3 and Supplementary Fig. 6a, the full-length His6- or SHN-tagged eIF4E (WT or II-AA mutant) was coexpressed with GST or MBP-tagged protein fragments, including CUP (residues 311–440), Thor (full length), 4E-T (residues 1–58) or eIF4G (residues 578–650) in E. coli BL21 (DE3) STAR cells in autoinducing medium[44] overnight at 20 °C. The cells were resuspended in lysis buffer (20 mM Tris–HCl (pH 7.5), 100 mM NaCl, 1 mM DTT) supplemented with EDTA-free protease inhibitor (Roche) and lysed by sonication. The cleared lysates were incubated for 1 h with 20 μl of Protino Glutathione Agarose 4B beads (Macherey-Nagel) or amylose resin (New England Biolabs). The beads were washed three times with lysis buffer, and the bound proteins were eluted with lysis buffer containing 25 mM L-glutathione or 25 mM maltose for 15 min. The proteins were analyzed by 10–15% SDS–PAGE followed by Coomassie blue staining.

Experiment [2] addresses T2, eIF4E–eIF4G complex (eIF4E WT; eIF4G residues 578–650) (Drosophila melanogaster, UniProt P48598).
T2 construct: full-length eIF4E (WT or the II-AA mutant) containing an N-terminal SNH-tag was coexpressed; made in house; host or cells: E. coli BL21 Star (DE3), coexpression
T2 sequence (P48598 1-248 isoform P48598-2): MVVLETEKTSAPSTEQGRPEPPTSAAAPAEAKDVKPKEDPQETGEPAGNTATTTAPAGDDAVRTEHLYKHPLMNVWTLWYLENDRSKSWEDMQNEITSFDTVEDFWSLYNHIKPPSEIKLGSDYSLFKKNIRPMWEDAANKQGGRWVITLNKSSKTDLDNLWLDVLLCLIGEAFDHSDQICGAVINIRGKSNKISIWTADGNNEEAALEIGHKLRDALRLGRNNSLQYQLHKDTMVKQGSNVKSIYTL
Nature of the experiment: Competition assay, displacement of GST-eIF4G from preassembled eIF4E (WT)–eIF4G complexes. Format: biochemical. To be noted: Fig. 5a,c; fivefold molar excess of MBP-tagged competitor, 30 min at 4 °C, m7GTP or Strep-Tactin pull down. As to the method: For the competition assays shown in Figs 5a,c and 6a,b, complexes containing SHN- or MBP-tagged eIF4E (WT or II-AA mutant) bound to GST-eIF4G (residues 578–650), GST-Thor (full length), GST-4E-T (residues 1–58) or GST-CUP (311–440) were obtained by coexpressing the corresponding proteins in E. coli BL21 (DE3) STAR cells (30 ml culture). The cells were resuspended in lysis buffer (5 ml) that was supplemented with EDTA-free protease inhibitor (Roche) and 1 mg ml^−1 lysozyme and lysed by sonication. The cleared lysates were incubated with 400 μl of Protino Glutathione Agarose 4B (Macherey-Nagel) for 1 h. The beads were washed three times with lysis buffer, and the proteins were eluted after 10 min of incubation with lysis buffer containing 25 mM L-glutathione. The protein complexes were stored at −20 °C or used in competition assays.
The purified recombinant complexes were mixed with excess amounts of the indicated purified competitor proteins (Fig. 5c) or with bacterial lysates expressing the competitor proteins (Figs 5a and 6) and incubated for 30 min at 4 °C. After incubation, 20 μl of immobilized γ-Aminophenyl-m^7GTP or Strep-Tactin Sepharose (IBA), were added to the samples and incubated for another 40 min at 4 °C. The beads were washed three times with lysis buffer and eluted with lysis buffer containing 2.5 mM desthiobiotin (Strep-Tactin Sepharose) or with 20 μl of SDS–PAGE loading buffer (Aminophenyl-m^7GTP beads). The proteins were analyzed by 10–15% SDS–PAGE followed by staining with Coomassie blue staining. […]

Another experiment concerns endogenous eIF4E. The experiment can be described thus: Coimmunoprecipitation / m7GTP pull-down with endogenous eIF4E in S2 cell lysates. Format: cell-based, Drosophila melanogaster. To be noted: western blot. As to the method: The coimmunoprecipitations assays were performed as previously described. For the pull downs using m^7GTP beads, 25 μl of immobilized γ-aminophenyl-m^7GTP (C10-spacer—Jena Bioscience) beads was added to the cell lysates and the mixtures were rotated for 1 h at 4 °C. The beads were washed three times with NET buffer (50 mM Tris (pH 7.4), 150 mM NaCl, 1 mM EDTA and 0.1% Triton X-100). The bound proteins were eluted with 2 × SDS–polyacrylamide gel electrophoresis (SDS–PAGE) sample buffer and analyzed by western blotting (WB). All of the WB experiments were developed with the ECL western blotting detection system (GE Healthcare) as recommended by the manufacturer. The antibodies used in this study are listed in Supplementary Table 2.
Thor and 4E-T) or HA-eIF4G and endogenous eIF4E in S2 cell lysates. The proteins were immunoprecipitated using a polyclonal anti-eIF4E antibody (α-4E). The pre-immune (Pre-I) serum and an HA-tagged version of MBP served as negative controls. The inputs (1%) and immunoprecipitates (10%) were analyzed by western blotting using anti-HA and anti-eIF4E antibodies. (b,c) The interaction of HA-tagged full length 4E-BPs (CUP, Thor and 4E-T) and eIF4G with endogenous eIF4E was analyzed by coimmunoprecipitation using anti-HA antibodies (b) or by pull-down using m7GTP-Sepharose beads (c). HA-MBP served as a negative control. The inputs (10%) and immunoprecipitates (30%) were analyzed by western blotting using anti-HA and anti-eIF4E antibodies. (d) Western blot showing the interaction of HA-Thor (full-length either wild-type or mutants) with endogenous eIF4E in S2 cells. The proteins were immunoprecipitated using anti-HA antibodies and analyzed as described in (b,c). (e) Western blot showing the interaction of HA-4E-T (residues 1–511, wild-type or mutants) with endogenous eIF4E. The proteins were immunoprecipitated using anti-HA antibodies and analyzed as described in (b,c). The size markers (kDa) are shown to the right of each panel. Mutants are described in Supplementary Table 1.
(In general: In western blotting, separated proteins are transferred to a membrane and probed.)

Experiment [3] concerns the target T1, SHN-eIF4E (full length, WT). Nature of the experiment: pull-down; preassembled complexes of SHN-eIF4E (WT or II-AA) with GST-eIF4G, GST-CUP, GST-Thor or GST-4E-T (coexpressed, purified on glutathione agarose) recovered on Strep-Tactin beads. The note with it: both partners purified.
Experiment [4] addresses T3, SHN-eIF4E (full length, II-AA mutant) (Drosophila melanogaster, UniProt P48598-2 1-248, Ile96 to Ala (II-AA) | Ile112 to Ala (II-AA)).
T3 construct: eIF4E, Drosophila melanogaster; also called SHN-tagged eIF4E II-AA; not shown: Strep-NusA-His (SHN), N-terminal, kept
T3 sequence (looked up): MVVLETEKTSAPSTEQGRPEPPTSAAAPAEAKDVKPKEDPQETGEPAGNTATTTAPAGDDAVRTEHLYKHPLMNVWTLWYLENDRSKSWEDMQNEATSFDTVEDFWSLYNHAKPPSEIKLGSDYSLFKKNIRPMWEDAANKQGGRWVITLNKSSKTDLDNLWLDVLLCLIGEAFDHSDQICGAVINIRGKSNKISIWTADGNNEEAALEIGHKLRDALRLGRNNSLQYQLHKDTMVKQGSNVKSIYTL
The experiment is described as above. To be noted: both partners purified.

B1: MBP-Thor (full length, WT) (natural protein, Drosophila melanogaster, UniProt Q9XZ56 1-117, looked up)
chain: MSASPTARQAITQALPMITRKVVISDPIQMPEVYSSTPGGTLYSTTPGGTKLIYERAFMKNLRGSPLSQTPPSNVPSCLLRGTPRTPFRKCVPVPTELIKQTKSLKIEDQEQFQLDL
notes: Thor, Drosophila melanogaster; not shown: MBP, N-terminal, kept
As for B1, in experiment [1], the binding result was “binds”.

B2: Thor ΔNC: Thor ∆76–84, non-canonical motif deleted (protein)
chain: MSASPTARQAITQALPMITRKVVISDPIQMPEVYSSTPGGTLYSTTPGGTKLIYERAFMKNLRGSPLSQTPPSNVRTPFRKCVPVPTELIKQTKSLKIEDQEQFQLDL
modifications: left off: HA (λN-HA, from the vector pAc5.1-λN-HA), end not stated, kept | V5, end not stated, state not stated
notes: Thor ∆76–84, non-canonical motif deleted
Take B2: the “binding to WT eIF4E (in words)” value in the experiment with eIF4E (full length, WT) was “The results obtained for the Thor NC* and C+NC* mutants were confirmed; also recorded: interacted with eIF4E”. In experiment [2], the “competition with eIF4G for eIF4E WT (in words)” value is given as “abolish its ability to compete with eIF4G”. The “interaction with endogenous eIF4E (in words)” value in the experiment on endogenous eIF4E is given as “abolished the interaction with eIF4E”.

B3: GST-CUP (residues 311–440) (domain or fragment, Drosophila melanogaster, UniProt Q9VMA3 311-440, looked up)
chain: VRPTTAPVVSSKPVKSYTRSRLMDIRNGMFNALMHRSKESFVMPRIATCDDIELEGRLRRMNIWRTSDGTRFRTRSTTANLNMNNNNNNECMPAFFKNKNKPNLISDESIIQSQPPQPQTEFQDPAIVNQ
notes: CUP, Drosophila melanogaster, residues 311–440; may be the same construct as m25; source: E. coli BL21 (DE3) STAR, coexpressed with SHN-eIF4E, complex purified on glutathione agarose
B3: the binding result in experiment [3] and in experiment [4] was “binds” throughout.
